Here are results for four molecules from patent US7501267B2, “Gene sequence of L-rhamnose isomerase having new catalytic function and use thereof” (Rare Sugar Production Technical Research Laboratories, LLC, priority 2003, dated 2009).

Where two headings read alike, the source gives them in different places.

Data set [1] concerns L-rhamnose isomerase produced by Pseudomonas stutzerii LL172. The conditions noted are these: Non-Patent Document 3, cited from earlier work; for Effect of a chelating agent on activity: coexisting during the measurement of activity.
For data set [2] the test system is unchanged. Nature of the data set: Effect of a chelating agent or metal ion on L-rhamnose isomerase activity. The class given is biochemical. The following applies: for Effect of a chelating agent on activity: coexisting during the measurement of activity.
Substrate in data set [3]: OC1OC[C@H](O)[C@@H](O)[C@H]1O
Nature of the data set: cells, lysate or membranes named. The conditions noted are these: other: purified enzyme without immobilizing; pH 7.0.

Substrate in data set [4]: OC1OC[C@H](O)[C@H](O)[C@H]1O
Nature of the data set: cells, lysate or membranes named. The conditions noted are these: other: purified enzyme without immobilizing; pH 7.0.

Substrate in data set [5]: OC1OC[C@@H](O)[C@@H](O)[C@H]1O
Nature of the data set: cells, lysate or membranes named. The conditions noted are these: other: purified enzyme without immobilizing; pH 7.0.

For data set [6] the following is noted: cited from earlier work.
Substrate in data set [7]: OC[C@H]1OC(O)[C@H](O)[C@H](O)[C@@H]1O
Nature of the data set: Km and Vmax of purified L-rhamnose isomerase for a variety of substrates. The class given is biochemical, Pseudomonas stutzeri. The conditions noted are these: other: purified enzyme without immobilizing; pH 7.0. The procedure: (§1) An enzyme was obtained with the same conditions as those of Example 5. The measurement of Km and Vmax was carried out using the enzyme without immobilizing.
(§2) The cells were washed twice with 0.05 M sodium phosphate buffer (pH 7.0). The washed cells were ground with alumina powder and subjected to centrifugation to remove insoluble substances together with alumina powder, whereby a crude enzyme solution was obtained. The obtained crude enzyme solution was subjected to affinity chromatography using an Ni-NTA column to purify the enzyme, whereby a pure enzyme was obtained. After the enzyme was dialyzed against ultrapure water, lyophilization was carried out, whereby pure powder enzyme was obtained. By allowing 20 mg of the enzyme to be adsorbed on 1 g of Chitopearl resin, immobilized enzyme was prepared.

Substrate in data set [8]: C[C@@H]1OC(O)[C@H](O)[C@H](O)[C@H]1O
The description is as above. It counts as biochemical, Pseudomonas stutzeri. The conditions noted are these: other: purified enzyme without immobilizing; pH 7.0. The procedure: as §1, §2

Substrate in data set [9]: OC[C@@H]1OC(O)[C@H](O)[C@H](O)[C@H]1O
The data set is described as above. The class given is biochemical, Pseudomonas stutzeri. The conditions noted are these: other: purified enzyme without immobilizing; pH 7.0. The method, then:
as §1, §2

Substrate in data set [10]: OC[C@H]1OC(O)[C@@H](O)[C@H](O)[C@@H]1O
Described as above. The class given is biochemical, Pseudomonas stutzeri. The following applies: other: purified enzyme without immobilizing; pH 7.0. The method, then:
as §1, §2

As to `[Co+2]` [cobalt ion], the “Activity inhibited by metal ion” value in data set [1] (1 mM) and in data set [2] (1 mM) was “About 30%” each time.
In the case of `O=C(O)CN(CCOCCOCCN(CC(=O)O)CC(=O)O)CC(=O)O` [EGTA], the “Effect of a chelating agent on activity” value in data set [1] and in [2] was “hardly inhibited” each time.
On to `O=C(O)CN(CCN(CC(=O)O)CC(=O)O)CC(=O)O` [EDTA], for which the “Effect of a chelating agent on activity” value in data set [1] and in data set [2] was “hardly inhibited” throughout.

B1: L-rhamnose isomerase derived from P. stutzeri (Stutzerimonas stutzeri) (protein)
chain: MAEFRIAQDVVARENDRRASALKEDYEALGANLARRGVDIEAVTAKVEKFFVAVPSWGVGTGGTRFARFPGTGEPRGIFDKLDDCAVIQQLTRATPNVSLHIPWDKADPKELKARGDALGLGFDAMNSNTFSDAPGQAHSYKYGSLSHTDAATRAQAVEHNLECIEIGKAIGSKALTVWIGDGSNFPGQSNFTRAFERYLSAMAEIYKGLPDDWKLFSEHKMYEPAFYSTVVQDWGTNYLIAQTLGPKAQCLVDLGHHAPNTNIEMIVARLIQFGKLGGFHFNDSKYGDDDLDAGAIEPYRLFLVFNELVDAEARGVKGFHPAHMIDQSHNVTDPIESLINSANEIRRAYAQALLVDRAALSGYQEDNDALMATETLKRAYRTDVEPILAEARRRTGGAVDPVATYRASGYRARVAAERPASVAGGGGII
B1: the “Optimal pH” value was found to be 9.0 and the Optimal temperature came out at 60 °C. In addition, in [3], the Michaelis constant (Km) (commonly the substrate concentration at which the rate is half of its maximum) is recorded as 61.7 mM and the maximum rate (Vmax) (usually the rate approached at saturating substrate) is 123 µmol/min/mg. For the same molecule, in [4], the Michaelis-Menten constant (Km) was 2.35 mM and the maximal velocity (Vmax) was 0.061 µmol/min/mg. Besides, in data set [5], the Michaelis constant (Km) came to 38.5 mM and the maximum rate (Vmax) was 21.4 µmol/min/mg. The “Temperature stability, activity remaining” value in data set [6] (10 min) was at least 90%. In data set [6] (Non-Patent Document 3), the “Optimal pH” value is 9.0 and the Optimal temperature is 60 °C. Moreover, where the note is “10 min”, the “Temperature stability, activity remaining” value is listed as at least 90%. In data set [7], the Km is on record as 42 mM and the Vmax was 6.76 µmol/min/mg. Further, in [8], the Km is listed as 11.9 mM and the Vmax turned out to be 238 µmol/min/mg. Further, in [9], the Km was 55.5 mM and the Vmax stood at 139 µmol/min/mg. For the same molecule, in data set [10], the Km amounted to 71 mM and the maximum rate (Vmax) came to 0.01 µmol/min/mg.
